No end group written: not given here.
Experiments:
[1] = tested on: respective peptides coupled to bovine serum albumin (BSA); experiment: Peptide ELISA: anti-peptide titers of sera from vaccinated mice; format: in vivo; conditions: median values (n = 5); Balb/c mice s.c. three times 15 μg net peptide coupled to KLH, Alum; titre = serum dilution at 50% of ODmax
Experimental: (§1) The peptides were conjugated via the heterobifunctional linker GMBS (4-Maleimidobutyric acid N-hydroxysuccinimide ester) to KLH (Keyhole Limpet Hemocyanin).
(§2) 15 μg of the peptides were suspended with aluminum hydroxide (end concentration of aluminum hydroxide was 0.2%). As buffer mannitol/phosphate was used.
(§3) 5 Balb/c mice were subcutaneously immunized. Mice had access to food and water ad libitum and were kept under a 12 h light/dark cycle. Age of mice at the beginning of experiments was usually 8 to 10 weeks.
(§4) Mice were injected three times in 2 week intervals with 15 μg of net peptide coupled to KLH and adsorbed to Alum as adjuvant in a volume of 1 ml in total via the s.c. route.
(§5) Blood was taken approximately 2 weeks after the final injection.
(§6) To determine the immunogenicity of the vaccines, 96-well Nunc-Maxisorb plates were coated with 1 μM of the respective peptides coupled to bovine serum albumin (BSA) in 0.1 M NaHCO3, pH 9.2-9.4. An irrelevant peptide was used as negative control. KLH was included as positive control and coated at a concentration of 1 μg/ml. Unspecific binding was blocked by incubation with blocking buffer (5% BSA in PBS). Appropriate serum dilutions were added to the wells, serially diluted 1:2 fold and incubated for approximately 1 hour at 37° C. On every ELISA plate a standard serum was included as internal control. Bound antibodies were detected by incubation with biotinylated goat anti-mouse IgG, followed by horseradish peroxidase coupled to Streptavidin. As substrate ABTS was added and the optical density (OD) at 405 nm was measured in a Microwell plate-reader. The titres were defined as the dilution of the serum where 50% of the ODmax in the assay are reached.

[2] = target: T1, recombinantly expressed human CETP N-terminally fused to GST (GST-CETP) (Homo sapiens, UniProt P11597); experiment: Protein ELISA: anti-protein titers of sera from vaccinated mice; format: in vivo, Balb/c mice; conditions: for anti-protein titers: median values (n = 5), Balb/c mice s.c. three times 15 μg net peptide coupled to KLH, Alum, GST-CETP ELISA, titre = serum dilution at 50% of ODmax
T1 construct: not only antibodies directed to the peptide itself but also to the mature CETP protein; GST (N); made in house
T1 sequence (P11597 18-493): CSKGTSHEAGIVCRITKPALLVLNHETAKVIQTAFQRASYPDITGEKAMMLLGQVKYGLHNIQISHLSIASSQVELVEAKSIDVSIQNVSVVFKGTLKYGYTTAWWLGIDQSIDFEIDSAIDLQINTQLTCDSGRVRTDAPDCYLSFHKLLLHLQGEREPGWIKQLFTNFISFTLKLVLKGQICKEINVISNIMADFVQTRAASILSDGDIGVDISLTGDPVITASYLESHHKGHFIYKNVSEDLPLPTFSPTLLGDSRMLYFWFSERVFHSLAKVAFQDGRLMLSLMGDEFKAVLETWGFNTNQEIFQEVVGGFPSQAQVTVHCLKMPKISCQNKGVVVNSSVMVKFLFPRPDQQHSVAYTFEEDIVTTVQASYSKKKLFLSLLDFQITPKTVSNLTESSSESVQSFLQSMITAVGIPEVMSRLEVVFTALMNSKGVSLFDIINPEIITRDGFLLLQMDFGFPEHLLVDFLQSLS
Experimental: as §1, §2, §3, §4, §5, §6
The antibodies induced by the vaccination were tested for their ability to bind to recombinantly expressed human CETP N-terminally fused to GST (“GST-CETP”) using the protocol described under “peptide ELISA”.

[3] = target: T2, CETP activity of human serum (Homo sapiens, UniProt P11597); experiment: CETP activity inhibition assay (Roar kit) with sera from vaccinated mice; format: biochemical; conditions: n=5 mice per group; human serum as CETP source mixed with same amount of serum from vaccinated mice
T2 construct: Human serum was used as CETP source; from tissue; host or cells: human serum
T2 sequence (P11597 18-493): T1 sequence (P11597 18-493)
Experimental: as §3, §4, §5
CETP activity was determined with the Roar CETP activity assay kit (RB-CETP; Roar Biomedical) by measuring the transfer of a fluorescently labeled substrate according to the protocol provided by the manufacturer. […] Human serum was used as CETP source and was mixed with the same amount of serum from vaccinated mice together with donor and acceptor particles (components of the CETP activity assay kit).
Mouse sera containing CETP-inhibiting antibodies lead to a decrease of the signal in this assay. Sera from mice injected with irrelevant peptide served as negative control.

Row | Substance | anti-peptide titers [1] | anti-protein titers [2] | no. of mice with antibodies inhibiting CETP activity [3] | formation of antibodies directed to mature CETP protein (in words) ([2]; vaccinated Balb/c mice, protein ELISA)
1 | 1 (YTTAWWLGIDQS) [compound 1] | 70,000 | 800 | 3 of 5 | 
2 | 2 (KAMMLLGQV) [compound 2] | 66,000 | 0 |  | 
3 | 3 (LHLQGEREPGWIKQ) [compound 3] | 97,000 | 50 |  | 
4 | 4 (DEFKAVLETWG) [compound 4] | 140,000 | 0 |  | 
5 | 5 (GFNTNQEIFQEVVGGFP) [compound 5] | 100,000 | 100 |  | 
6 | 6 (ESIQSFLQSMITA) [compound 6] | 69,000 | 0 |  | 
7 | 7 (YGYTTAWWLGIDQSID) [compound 7] | 33,000 | 500 | 3 of 5 | 
8 | 8 (TTAWWLGIDQS) [compound 8] | 89,000 | 1,200 | 4 of 5 | 
9 | 9 (TAWWLGIDQS) [compound 9] | 173,000 | 2,200 | 4 of 5 | 
10 | 10 (AWWLGIDQS) [compound 10] | 191,000 | 1,700 | 5 of 5 | 
11 | 11 (WWLGIDQS) [compound 11] | 330,000 | 1,100 | 5 of 5 | 
12 | 12 (WLGIDQS) [compound 12] | 153,000 | 0 |  | 
13 | 13 (YTTAWWLGIDQ) [compound 13] | 143,000 | 1,200 | 1 of 5 | 
14 | 14 (YTTAWWLGID) [compound 14] | 630,000 | 600 | 1 of 5 | 
15 | 15 (YTTAWWLGI) [compound 15] | 111,000 | 300 | 0 of 5 | 
16 | 16 (YTTAWWLG) [compound 16] | 74,000 | 0 |  | 
17 | 17 (YTTAWWL) [compound 17] | 94,000 | 0 |  | 
18 | 18 (TTAWWLGIDQ) [compound 18] | 216,000 | 900 | 4 of 5 | 
19 | 19 (TTAWWLGID) [compound 19] | 114,000 | 1,300 | 3 of 5 | 
20 | 20 (TTAWWLGI) [compound 20] | 124,000 | 300 |  | 
21 | 21 (TAWWLGI) [compound 21] | 99,000 | 0 |  | 
22 | 22 (FPRPDQQHSV) [compound 22] | 229,000 | 0 |  | 
23 | C-YTTAWWLGIDQS (CYTTAWWLGIDQS; also: conjugated to KLH carrier) [SEQ ID No. 1, CETP fragment AA101-112, N-terminal cysteine, conjugated to KLH] |  |  |  | leads to the formation of not only antibodies directed to the peptide itself but also to the mature CETP protein

Source: US9085636B2, “CETP fragments” (AFFIRIS AG, priority 2011, dated 2015)
